Reference: patent publication US20180057536

How the values were obtained:
[1] = test system: T1, Selective delivery molecule 10 (SDM-10)
T1 sequence: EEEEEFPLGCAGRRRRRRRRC

[2] = test system: T2, Selective delivery molecule 9 (SDM-9)
T2 sequence: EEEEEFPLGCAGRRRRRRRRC

| Substance | Cy5 fluorescence enhancement after protease cleavage (dequenching), 1 uM SDM-10 in TCNB buffer [1] | fluorescent cleavage fragment on polyacrylamide gel (1 nM MMP-9, 1 uM SDM-10, 24 h, 37 C) [1] | Cy5 donor emission after protease cleavage (FRET disruption), 1 uM SDM-9 in TCNB buffer [2] | Cy7 acceptor emission after protease cleavage (FRET disruption), 1 uM SDM-9 in TCNB buffer [2] |
| --- | --- | --- | --- | --- |
| MMP-9 | the fluorescence was enhanced >100-fold upon protease cleavage | After cleavage by MMP-9 the fragment containing the fluorophore is dequenched (becoming highly fluorescent) and runs near the bottom of the gel |  |  |
| matrix metalloproteinase-2 (MMP-2) |  |  | a large 8-fold increase the Cy5 donor emission | 2-fold decrease in the Cy7 emission |
